Legend:
[1] = target: human CD33 (human) (UniProt P20138); assay: flow cytometry, human primary monocytes
[2] = target: human CD33 (human) (UniProt P20138); assay: flow cytometry, human primary macrophages
[3] = target: human CD33 (human) (UniProt P20138); assay: flow cytometry, human primary T cells
[4] = target: human CD33 (human) (UniProt P20138); assay: flow cytometry, human primary dendritic cells

Chain of human CD33 (human) (P20138 18-364): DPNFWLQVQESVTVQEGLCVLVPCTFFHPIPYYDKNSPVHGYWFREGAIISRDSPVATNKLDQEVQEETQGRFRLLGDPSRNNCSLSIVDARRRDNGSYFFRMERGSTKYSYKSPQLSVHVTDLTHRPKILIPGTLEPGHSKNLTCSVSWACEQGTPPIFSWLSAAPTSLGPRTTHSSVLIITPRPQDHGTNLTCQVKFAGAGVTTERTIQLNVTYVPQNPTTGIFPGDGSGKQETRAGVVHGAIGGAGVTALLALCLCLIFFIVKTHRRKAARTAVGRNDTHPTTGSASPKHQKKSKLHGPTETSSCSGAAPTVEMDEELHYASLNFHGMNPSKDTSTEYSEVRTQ

In the case of isotype control antibody, the Monocyte MFI [1] is reported as 43.2, the Macrophage MFI [2] is reported as 451 and the T cell MFI [3] is reported as 42.9. The DC MFI [4] was 178.
